This note sets out measurements from patent EP4792821A2 (Beijing Youcare Kechuang Pharmaceutical Technology Co., Ltd., dated 2026).

Sequences and labels used below:
B1: Compound 31 (peptide)
peptide: Ac-SDEQVNEKINQSLAFIRRIRKLLHNEAAAKK(Succinyl(4-O-cholesteryl))-NH2
SMILES: CC[C@H](C)[C@H](NC(=O)[C@H](Cc1ccccc1)NC(=O)[C@H](C)NC(=O)[C@H](CC(C)C)NC(=O)[C@H](CO)NC(=O)[C@H](CCC(N)=O)NC(=O)[C@H](CC(N)=O)NC(=O)[C@@H](NC(=O)[C@H](CCCCN)NC(=O)[C@H](CCC(=O)O)NC(=O)[C@H](CC(N)=O)NC(=O)[C@@H](NC(=O)[C@H](CCC(N)=O)NC(=O)[C@H](CCC(=O)O)NC(=O)[C@H](CC(=O)O)NC(=O)[C@H](CO)NC(C)=O)C(C)C)[C@@H](C)CC)C(=O)N[C@@H](CCCNC(=N)N)C(=O)N[C@@H](CCCNC(=N)N)C(=O)N[C@H](C(=O)N[C@@H](CCCNC(=N)N)C(=O)N[C@@H](CCCCN)C(=O)N[C@@H](CC(C)C)C(=O)N[C@@H](CC(C)C)C(=O)N[C@@H](Cc1c[nH]cn1)C(=O)N[C@@H](CC(N)=O)C(=O)N[C@@H](CCC(=O)O)C(=O)N[C@@H](C)C(=O)N[C@@H](C)C(=O)N[C@@H](C)C(=O)N[C@@H](CCCCN)C(=O)N[C@@H](CCCCNC(=O)CCC(=O)O[C@H]1CC[C@@]2(C)C(=CC[C@H]3[C@@H]4CC[C@H]([C@H](C)CCCC(C)C)[C@@]4(C)CC[C@@H]32)C1)C(N)=O)[C@@H](C)CC
B2: Compound 12 (peptide)
peptide: Ac-FDASIEEVNRRIEESLRRIEESDRRLEVNKKAGSGSGK(Succinyl(4-O-cholesteryl))-NH2
SMILES: CC[C@H](C)[C@H](NC(=O)[C@H](CO)NC(=O)[C@H](C)NC(=O)[C@H](CC(=O)O)NC(=O)[C@H](Cc1ccccc1)NC(C)=O)C(=O)N[C@@H](CCC(=O)O)C(=O)N[C@@H](CCC(=O)O)C(=O)N[C@H](C(=O)N[C@@H](CC(N)=O)C(=O)N[C@@H](CCCNC(=N)N)C(=O)N[C@@H](CCCNC(=N)N)C(=O)N[C@H](C(=O)N[C@@H](CCC(=O)O)C(=O)N[C@@H](CCC(=O)O)C(=O)N[C@@H](CO)C(=O)N[C@@H](CC(C)C)C(=O)N[C@@H](CCCNC(=N)N)C(=O)N[C@@H](CCCNC(=N)N)C(=O)N[C@H](C(=O)N[C@@H](CCC(=O)O)C(=O)N[C@@H](CCC(=O)O)C(=O)N[C@@H](CO)C(=O)N[C@@H](CC(=O)O)C(=O)N[C@@H](CCCNC(=N)N)C(=O)N[C@@H](CCCNC(=N)N)C(=O)N[C@@H](CC(C)C)C(=O)N[C@@H](CCC(=O)O)C(=O)N[C@H](C(=O)N[C@@H](CC(N)=O)C(=O)N[C@@H](CCCCN)C(=O)N[C@@H](CCCCN)C(=O)N[C@@H](C)C(=O)NCC(=O)N[C@@H](CO)C(=O)NCC(=O)N[C@@H](CO)C(=O)NCC(=O)N[C@@H](CCCCNC(=O)CCC(=O)O[C@H]1CC[C@@]2(C)C(=CC[C@H]3[C@@H]4CC[C@H]([C@H](C)CCCC(C)C)[C@@]4(C)CC[C@@H]32)C1)C(N)=O)C(C)C)[C@@H](C)CC)[C@@H](C)CC)C(C)C
B3: Compound 19 (peptide)
peptide: Ac-FDASIEEVNRRIEESLRRIEESDRRLEAAAKK(Succinyl(4-O-cholesteryl))-NH2
SMILES: CC[C@H](C)[C@H](NC(=O)[C@H](CO)NC(=O)[C@H](C)NC(=O)[C@H](CC(=O)O)NC(=O)[C@H](Cc1ccccc1)NC(C)=O)C(=O)N[C@@H](CCC(=O)O)C(=O)N[C@@H](CCC(=O)O)C(=O)N[C@H](C(=O)N[C@@H](CC(N)=O)C(=O)N[C@@H](CCCNC(=N)N)C(=O)N[C@@H](CCCNC(=N)N)C(=O)N[C@H](C(=O)N[C@@H](CCC(=O)O)C(=O)N[C@@H](CCC(=O)O)C(=O)N[C@@H](CO)C(=O)N[C@@H](CC(C)C)C(=O)N[C@@H](CCCNC(=N)N)C(=O)N[C@@H](CCCNC(=N)N)C(=O)N[C@H](C(=O)N[C@@H](CCC(=O)O)C(=O)N[C@@H](CCC(=O)O)C(=O)N[C@@H](CO)C(=O)N[C@@H](CC(=O)O)C(=O)N[C@@H](CCCNC(=N)N)C(=O)N[C@@H](CCCNC(=N)N)C(=O)N[C@@H](CC(C)C)C(=O)N[C@@H](CCC(=O)O)C(=O)N[C@@H](C)C(=O)N[C@@H](C)C(=O)N[C@@H](C)C(=O)N[C@@H](CCCCN)C(=O)N[C@@H](CCCCNC(=O)CCC(=O)O[C@H]1CC[C@@]2(C)C(=CC[C@H]3[C@@H]4CC[C@H]([C@H](C)CCCC(C)C)[C@@]4(C)CC[C@@H]32)C1)C(N)=O)[C@@H](C)CC)[C@@H](C)CC)C(C)C
B4: Compound 33 (peptide)
peptide: Ac-SLEQVNKKINQSLKVNKKSDKLLENEAAAKK(Succinyl(4-O-cholesteryl))-NH2
SMILES: CC[C@H](C)[C@H](NC(=O)[C@H](CCCCN)NC(=O)[C@H](CCCCN)NC(=O)[C@H](CC(N)=O)NC(=O)[C@@H](NC(=O)[C@H](CCC(N)=O)NC(=O)[C@H](CCC(=O)O)NC(=O)[C@H](CC(C)C)NC(=O)[C@H](CO)NC(C)=O)C(C)C)C(=O)N[C@@H](CC(N)=O)C(=O)N[C@@H](CCC(N)=O)C(=O)N[C@@H](CO)C(=O)N[C@@H](CC(C)C)C(=O)N[C@@H](CCCCN)C(=O)N[C@H](C(=O)N[C@@H](CC(N)=O)C(=O)N[C@@H](CCCCN)C(=O)N[C@@H](CCCCN)C(=O)N[C@@H](CO)C(=O)N[C@@H](CC(=O)O)C(=O)N[C@@H](CCCCN)C(=O)N[C@@H](CC(C)C)C(=O)N[C@@H](CC(C)C)C(=O)N[C@@H](CCC(=O)O)C(=O)N[C@@H](CC(N)=O)C(=O)N[C@@H](CCC(=O)O)C(=O)N[C@@H](C)C(=O)N[C@@H](C)C(=O)N[C@@H](C)C(=O)N[C@@H](CCCCN)C(=O)N[C@@H](CCCCNC(=O)CCC(=O)O[C@H]1CC[C@@]2(C)C(=CC[C@H]3[C@@H]4CC[C@H]([C@H](C)CCCC(C)C)[C@@]4(C)CC[C@@H]32)C1)C(N)=O)C(C)C
B5: Compound 10 (peptide)
peptide: Ac-KIEEVNKKIEESLKKIEESDKKLEEVNKKLEAAAKK(Succinyl(4-O-cholesteryl))-NH2
SMILES: CC[C@H](C)[C@H](NC(=O)[C@H](CCCCN)NC(C)=O)C(=O)N[C@@H](CCC(=O)O)C(=O)N[C@@H](CCC(=O)O)C(=O)N[C@H](C(=O)N[C@@H](CC(N)=O)C(=O)N[C@@H](CCCCN)C(=O)N[C@@H](CCCCN)C(=O)N[C@H](C(=O)N[C@@H](CCC(=O)O)C(=O)N[C@@H](CCC(=O)O)C(=O)N[C@@H](CO)C(=O)N[C@@H](CC(C)C)C(=O)N[C@@H](CCCCN)C(=O)N[C@@H](CCCCN)C(=O)N[C@H](C(=O)N[C@@H](CCC(=O)O)C(=O)N[C@@H](CCC(=O)O)C(=O)N[C@@H](CO)C(=O)N[C@@H](CC(=O)O)C(=O)N[C@@H](CCCCN)C(=O)N[C@@H](CCCCN)C(=O)N[C@@H](CC(C)C)C(=O)N[C@@H](CCC(=O)O)C(=O)N[C@@H](CCC(=O)O)C(=O)N[C@H](C(=O)N[C@@H](CC(N)=O)C(=O)N[C@@H](CCCCN)C(=O)N[C@@H](CCCCN)C(=O)N[C@@H](CC(C)C)C(=O)N[C@@H](CCC(=O)O)C(=O)N[C@@H](C)C(=O)N[C@@H](C)C(=O)N[C@@H](C)C(=O)N[C@@H](CCCCN)C(=O)N[C@@H](CCCCNC(=O)CCC(=O)O[C@H]1CC[C@@]2(C)C(=CC[C@H]3[C@@H]4CC[C@H]([C@H](C)CCCC(C)C)[C@@]4(C)CC[C@@H]32)C1)C(N)=O)C(C)C)[C@@H](C)CC)[C@@H](C)CC)C(C)C
B6: Compound 32 (peptide)
peptide: Ac-ILELVNKKIEQSLKFIEKSDKLLENEAAAKK(Succinyl(4-O-cholesteryl))-NH2
SMILES: CC[C@H](C)[C@H](NC(C)=O)C(=O)N[C@@H](CC(C)C)C(=O)N[C@@H](CCC(=O)O)C(=O)N[C@@H](CC(C)C)C(=O)N[C@H](C(=O)N[C@@H](CC(N)=O)C(=O)N[C@@H](CCCCN)C(=O)N[C@@H](CCCCN)C(=O)N[C@H](C(=O)N[C@@H](CCC(=O)O)C(=O)N[C@@H](CCC(N)=O)C(=O)N[C@@H](CO)C(=O)N[C@@H](CC(C)C)C(=O)N[C@@H](CCCCN)C(=O)N[C@@H](Cc1ccccc1)C(=O)N[C@H](C(=O)N[C@@H](CCC(=O)O)C(=O)N[C@@H](CCCCN)C(=O)N[C@@H](CO)C(=O)N[C@@H](CC(=O)O)C(=O)N[C@@H](CCCCN)C(=O)N[C@@H](CC(C)C)C(=O)N[C@@H](CC(C)C)C(=O)N[C@@H](CCC(=O)O)C(=O)N[C@@H](CC(N)=O)C(=O)N[C@@H](CCC(=O)O)C(=O)N[C@@H](C)C(=O)N[C@@H](C)C(=O)N[C@@H](C)C(=O)N[C@@H](CCCCN)C(=O)N[C@@H](CCCCNC(=O)CCC(=O)O[C@H]1CC[C@@]2(C)C(=CC[C@H]3[C@@H]4CC[C@H]([C@H](C)CCCC(C)C)[C@@]4(C)CC[C@@H]32)C1)C(N)=O)[C@@H](C)CC)[C@@H](C)CC)C(C)C

The star is where a group is joined. Succinyl(4-O-cholesteryl) = CC(C)CCC[C@@H](C)[C@H]1CC[C@H]2[C@@H]3CC=C4C[C@@H](OC(=O)CCC(=O)*)CC[C@]4(C)[C@H]3CC[C@]12C

The target of the assay is F protein of RSV A long virus strain (Respiratory Syncytial Virus (RSV) A …, UniProt P12568 26-574). The assay is described as follows: cell-based or functional assay.
F protein of RSV A long virus strain, sequence (P12568 26-574): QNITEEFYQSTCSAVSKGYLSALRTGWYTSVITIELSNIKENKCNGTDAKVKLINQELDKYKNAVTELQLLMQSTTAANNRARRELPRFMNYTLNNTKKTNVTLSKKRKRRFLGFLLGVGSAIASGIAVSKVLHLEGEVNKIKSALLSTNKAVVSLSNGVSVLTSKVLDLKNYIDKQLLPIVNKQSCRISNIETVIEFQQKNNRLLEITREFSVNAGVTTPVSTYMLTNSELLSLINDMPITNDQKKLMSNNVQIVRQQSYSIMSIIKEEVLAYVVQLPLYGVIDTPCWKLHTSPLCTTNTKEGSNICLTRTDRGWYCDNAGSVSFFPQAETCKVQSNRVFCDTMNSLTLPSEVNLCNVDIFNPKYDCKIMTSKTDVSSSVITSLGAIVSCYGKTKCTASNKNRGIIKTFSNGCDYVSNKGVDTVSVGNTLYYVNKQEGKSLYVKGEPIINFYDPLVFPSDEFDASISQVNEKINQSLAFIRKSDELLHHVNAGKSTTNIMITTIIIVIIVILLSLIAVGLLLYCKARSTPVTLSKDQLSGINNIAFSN
For the molecule B1, the “IC50/nM, plaque reduction, RSV A long on HEp-2 cells (Table 2, Cell fusion inhibition activity)” value amounted to 2220 nM.

Regarding Ac-YDELVFDASQVNEKINQSLEKIRKSDELLHNV-NH2 [Compound 23], the “IC50/nM, plaque reduction, RSV A long on HEp-2 cells (Table 2, Cell fusion inhibition activity)” value was 2330 nM.

In the case of B2, the “IC50/nM, plaque reduction, RSV A long on HEp-2 cells (Table 2, Cell fusion inhibition activity)” value was 28.4 nM.

Turning to B3, the “IC50/nM, plaque reduction, RSV A long on HEp-2 cells (Table 2, Cell fusion inhibition activity)” value came to 16.2 nM.

As for B4, the “IC50/nM, plaque reduction, RSV A long on HEp-2 cells (Table 2, Cell fusion inhibition activity)” value came to 5040 nM.

Ac-DEFDKKKIEEVNKKIEESLKKIEESDKKLEEV-NH2 [Compound 3]: the “IC50/nM, plaque reduction, RSV A long on HEp-2 cells (Table 2, Cell fusion inhibition activity)” value came to 4430 nM.

Take Ac-FDASIEEVNRRIEESLRRIEESDRRLEVNKKA-NH2 [Compound 1]: the “IC50/nM, plaque reduction, RSV A long on HEp-2 cells (Table 2, Cell fusion inhibition activity)” value amounted to 1360 nM.

With Ac-WDEFDKKIEEVNKKIEESLKKIEESDKKLEEVNKKLGSGSGK(Succinyl(4-O-cholesteryl))-NH2 [Compound 11], the “IC50/nM, plaque reduction, RSV A long on HEp-2 cells (Table 2, Cell fusion inhibition activity)” value came to 99.1 nM.

As for B5, the “IC50/nM, plaque reduction, RSV A long on HEp-2 cells (Table 2, Cell fusion inhibition activity)” value came to 18.1 nM.

In the case of Ac-DDEFNQKINEVNEKIEEILKKIEESDRKLEESDKKA-NH2 [Compound 2], the “IC50/nM, plaque reduction, RSV A long on HEp-2 cells (Table 2, Cell fusion inhibition activity)” value was more than 8000 nM.

For Ac-FDFDEFDASISQVNEKINESLAFIRLAFIRKSDELLEAAAKK-NH2 [Compound 24], the “IC50/nM, plaque reduction, RSV A long on HEp-2 cells (Table 2, Cell fusion inhibition activity)” value stood at 2650 nM.

Turning to B6, the “IC50/nM, plaque reduction, RSV A long on HEp-2 cells (Table 2, Cell fusion inhibition activity)” value stood at 296 nM.
